# Source: publication PMC5491343 (SLAS discovery, 2016)
# Square brackets hold non-standard residues; d marks the D form. Ends that are not written are not given here. Peptide text beside a SMILES is read from it. * marks the point of attachment. X1 = CN(C)c1ccc2c(-c3ccc(C(=O)NCCCCCN4C(=O)CC(*)C4=O)cc3C(=O)[O-])c3ccc(=[N+](C)C)cc-3oc2c1; pY = N[C@@H](Cc1ccc(OP(=O)(O)O)cc1)C(=O)O
# T1: isolated tandem SH2 domains of ZAP-70 (Homo sapiens, UniProt P43403)
# T1 sequence (P43403 1-259 limits assumed): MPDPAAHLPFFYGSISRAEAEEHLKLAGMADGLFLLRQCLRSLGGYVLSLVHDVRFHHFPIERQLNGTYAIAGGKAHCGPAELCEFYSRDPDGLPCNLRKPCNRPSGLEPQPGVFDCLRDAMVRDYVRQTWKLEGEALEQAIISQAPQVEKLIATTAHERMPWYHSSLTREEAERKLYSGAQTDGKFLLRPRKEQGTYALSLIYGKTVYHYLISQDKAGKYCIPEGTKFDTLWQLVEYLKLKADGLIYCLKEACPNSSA
# T2: ZAP-70 (Homo sapiens, UniProt P43403)
# T2 sequence (P43403 1-606): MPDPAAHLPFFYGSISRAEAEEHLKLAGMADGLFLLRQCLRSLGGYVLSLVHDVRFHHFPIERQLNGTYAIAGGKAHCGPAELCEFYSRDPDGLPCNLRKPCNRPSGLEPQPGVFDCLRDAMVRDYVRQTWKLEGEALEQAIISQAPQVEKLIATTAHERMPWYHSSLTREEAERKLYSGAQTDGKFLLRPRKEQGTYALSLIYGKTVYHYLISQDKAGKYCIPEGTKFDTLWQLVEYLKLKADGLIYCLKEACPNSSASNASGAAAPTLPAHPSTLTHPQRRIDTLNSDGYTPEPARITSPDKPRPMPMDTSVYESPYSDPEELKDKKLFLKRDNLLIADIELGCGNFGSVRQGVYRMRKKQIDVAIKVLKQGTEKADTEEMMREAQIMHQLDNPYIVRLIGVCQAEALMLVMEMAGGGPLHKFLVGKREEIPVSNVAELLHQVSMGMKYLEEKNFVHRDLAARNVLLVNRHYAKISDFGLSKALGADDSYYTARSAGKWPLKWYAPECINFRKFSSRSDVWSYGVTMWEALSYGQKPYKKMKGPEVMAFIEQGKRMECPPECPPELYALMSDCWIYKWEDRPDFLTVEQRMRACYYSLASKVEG
# T3: ZAP-70 Y315F/Y319F (UniProt P43403 1-619, Y315F | Y319F)
# T3 sequence (looked up): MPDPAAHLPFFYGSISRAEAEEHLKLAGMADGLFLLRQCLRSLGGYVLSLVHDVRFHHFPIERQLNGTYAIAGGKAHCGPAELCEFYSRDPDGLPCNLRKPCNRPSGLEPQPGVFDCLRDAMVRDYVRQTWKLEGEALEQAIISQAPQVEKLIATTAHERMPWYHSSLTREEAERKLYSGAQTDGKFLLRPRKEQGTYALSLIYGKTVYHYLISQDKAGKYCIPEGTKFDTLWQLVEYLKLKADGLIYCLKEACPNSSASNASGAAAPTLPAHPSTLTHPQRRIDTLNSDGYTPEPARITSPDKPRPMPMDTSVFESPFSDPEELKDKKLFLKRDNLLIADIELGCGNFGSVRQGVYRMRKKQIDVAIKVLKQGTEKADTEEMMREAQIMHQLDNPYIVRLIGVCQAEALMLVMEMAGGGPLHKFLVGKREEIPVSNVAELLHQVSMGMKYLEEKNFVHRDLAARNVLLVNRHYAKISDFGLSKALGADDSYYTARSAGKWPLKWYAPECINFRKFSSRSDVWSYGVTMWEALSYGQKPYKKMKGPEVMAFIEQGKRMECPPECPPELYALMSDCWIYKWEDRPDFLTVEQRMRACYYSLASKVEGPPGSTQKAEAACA
# T4: ZAP-70 (zeta-associated protein of 70 kDa), construct spanning residues 1-606, wild type (UniProt P43403 1-606)
# T4 sequence (looked up): T2 sequence (P43403 1-606)
# B1: TAMRA-labeled ITAM 2pY peptide (CGNQLpYNELNLGRREEpYDVLD), from the first ITAM of the T-cell receptor zeta chain (peptide)
# peptide: C(TAMRA C5 maleimide)GNQL[pY]NELNLGRREE[pY]DVLD
# Columns and labels:
# [1] = target: T1, isolated tandem SH2 domains of ZAP-70; assay: Fluorescence polarization assay with the isolated tandem SH2 unit; type: binding; conditions: data not shown
# ZAP-70 = target: T2, ZAP-70; assay: TR-FRET ZAP-70:2pY binding / inhibition assay; conditions: read-out: KD, ZAP-70 binding to AlexaFluor488-2pY
# ZAP-Src chimera = assay: Fluorescence polarization 2pY binding to ZAP-Src chimera; conditions: read-out: binding constant for 2pY peptide and the ZAP-Src chimera; FP, TAMRA-2pY
# [2] = target: 2pY ITAM peptide ITAM (Homo sapiens) (UniProt P20963); conditions: cited from earlier work
# ZAP-70 Y315F/Y319F = target: T3, ZAP-70 Y315F/Y319F; assay: fluorescence polarisation
# [3] = target: T4, ZAP-70 (zeta-associated protein of 70 …); assay: fluorescence polarisation
molecule,measurement,setting,value
2pY: fluorescently labeled doubly phosphorylated ITAM peptide of the ζ chain (CGNQLpYNELNLGRREEpYDVLD) (C(TAMRA C5 maleimide)GNQL[pY]NELNLGRREE[pY]DVLD),"dissociation constant, tandem SH2 unit and 2pY peptide",[1],nearly identical to the Src-ZAP fusion protein
same,Kd,ZAP-70,55.4 ± 7.1 nM
CC(C)C[C@H](NC(=O)[C@H](CC(N)=O)NC(=O)[C@H](CC(C)C)NC(=O)[C@H](CCC(=O)O)NC(=O)[C@H](CC(N)=O)NC(=O)[C@H](Cc1ccc(OP(=O)(O)O)cc1)NC(=O)[C@H](CC(C)C)NC(=O)[C@H](CCC(N)=O)NC(=O)[C@H](CC(N)=O)NC(=O)CNC(=O)[C@@H](N)CSC1CC(=O)N(CCCCCNC(=O)c2ccc(-c3c4ccc(=[N+](C)C)cc-4oc4cc(N(C)C)ccc34)c(C(=O)[O-])c2)C1=O)C(=O)NCC(=O)N[C@@H](CCCNC(=N)N)C(=O)N[C@@H](CCCNC(=N)N)C(=O)N[C@@H](CCC(=O)O)C(=O)N[C@@H](CCC(=O)O)C(=O)N[C@@H](Cc1ccc(OP(=O)(O)O)cc1)C(=O)N[C@@H](CC(=O)O)C(=O)N[C@H](C(=O)N[C@@H](CC(C)C)C(=O)N[C@@H](CC(=O)O)C(=O)O)C(C)C (stereo partly drawn) [TAMRA-2pY] (H-C(X1)GNQL[pY]NELNLGRREE[pY]DVLD-OH; N-terminus and C-terminus assumed),Kd,ZAP-Src chimera,15.8 ± 1.3 nM
ZAP-70 (from UniProt P43403),Kd,[2],76.6 nM
B1,Kd,ZAP-70 Y315F/Y319F,82.2 ± 5.6 nM
same,Kd,[3],45.7 ± 4.7 nM
